Laboratory results as given in article PMC4822050, “Hemi-methylated DNA opens a closed conformation of UHRF1 to facilitate its histone recognition” (Nature Communications, 2016).

Experiments:
[1] = target: T1, PHD of UHRF1 (residues 307–366) (human, UniProt Q96T88 307-366); experiment: ITC; 0.05 mM protein in the cell, 0.5 mM protein or peptide in the syringe, iTC200, 18 °C, 10 mM HEPES pH 8.0, 100 mM NaCl; details: both partners purified
T1 construct: human UHRF1, PHD, residues 307–366; also called plant homeodomain; the isolated PHD
T1 sequence (looked up): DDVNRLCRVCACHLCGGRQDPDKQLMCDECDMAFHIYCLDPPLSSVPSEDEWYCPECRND

[2] = target: T2, full-length UHRF1 (residues 1–793) (human, UniProt Q96T88 1-793); experiment: as above; details: both partners purified
T2 construct: human UHRF1, residues 1–793; monomer by gel filtration; also called wild-type UHRF1; ICBP90
T2 sequence (looked up): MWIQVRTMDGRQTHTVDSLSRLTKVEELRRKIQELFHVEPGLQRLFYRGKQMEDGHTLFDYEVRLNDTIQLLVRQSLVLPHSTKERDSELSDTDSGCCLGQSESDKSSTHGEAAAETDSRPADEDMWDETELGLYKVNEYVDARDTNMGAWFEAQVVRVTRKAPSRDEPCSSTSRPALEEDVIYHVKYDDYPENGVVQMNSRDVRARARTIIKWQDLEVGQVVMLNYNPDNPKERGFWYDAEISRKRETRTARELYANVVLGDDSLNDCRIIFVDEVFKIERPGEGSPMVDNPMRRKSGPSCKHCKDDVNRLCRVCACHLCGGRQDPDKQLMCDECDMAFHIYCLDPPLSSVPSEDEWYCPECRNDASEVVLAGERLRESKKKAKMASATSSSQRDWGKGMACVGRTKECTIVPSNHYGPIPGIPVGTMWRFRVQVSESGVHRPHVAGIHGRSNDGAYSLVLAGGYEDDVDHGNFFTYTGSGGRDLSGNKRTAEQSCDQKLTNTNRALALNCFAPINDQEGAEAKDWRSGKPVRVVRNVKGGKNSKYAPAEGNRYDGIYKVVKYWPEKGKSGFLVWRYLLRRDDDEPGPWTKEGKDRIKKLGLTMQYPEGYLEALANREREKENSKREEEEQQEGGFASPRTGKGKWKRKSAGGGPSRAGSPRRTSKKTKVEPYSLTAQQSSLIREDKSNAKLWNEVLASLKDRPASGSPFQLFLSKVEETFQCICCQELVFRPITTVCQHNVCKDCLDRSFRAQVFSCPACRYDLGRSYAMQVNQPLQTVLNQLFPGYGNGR

fold higher binding affinity than with full-length UHRF1 [1]: ~34 fold
Kd [2]: 26 µM
B1: H3 peptide (1–17) (peptide, UniProt P68431 2-18, looked up)
peptide: ARTKQTARKSTGGKAPR
notes: histone H3, residues 1–17; also called H3K9me0; unmethylated histone H3
